Numbering of substitutions follows the chain as printed.
T1: GPC6-AP fusion protein (UniProt Q9R087 24-530, carries glycosaminoglycan (GAG) chains; biotinylated with EZ-link Sulfo-NHS-LC biotin for SPR)
T1 sequence: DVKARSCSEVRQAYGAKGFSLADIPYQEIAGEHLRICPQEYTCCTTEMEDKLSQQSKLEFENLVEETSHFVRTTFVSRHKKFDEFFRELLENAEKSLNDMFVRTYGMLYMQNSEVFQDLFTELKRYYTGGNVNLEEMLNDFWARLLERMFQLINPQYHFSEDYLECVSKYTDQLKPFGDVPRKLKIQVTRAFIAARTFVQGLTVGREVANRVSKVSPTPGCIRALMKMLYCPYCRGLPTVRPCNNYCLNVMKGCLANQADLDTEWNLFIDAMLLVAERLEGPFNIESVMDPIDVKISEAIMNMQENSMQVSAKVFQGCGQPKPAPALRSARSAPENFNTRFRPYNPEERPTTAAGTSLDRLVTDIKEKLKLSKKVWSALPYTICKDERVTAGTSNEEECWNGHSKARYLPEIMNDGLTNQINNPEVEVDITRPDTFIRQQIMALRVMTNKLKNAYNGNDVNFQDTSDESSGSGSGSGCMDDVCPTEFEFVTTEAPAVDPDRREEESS

B1: GPC6ΔGAG-AP fusion protein (natural protein)
chain: T1 sequence with S470A, S472A, S474A, S476A
modifications: biotinylated with EZ-link Sulfo-NHS-LC biotin for SPR
B2: recombinant Ihh (ligand)
chain: not shown

Tests used:
Assay in all cases: SPR
recombinant Shh = recombinant Shh (UniProt Q62226 25-198)
Sequence of recombinant Shh (Q62226 25-198): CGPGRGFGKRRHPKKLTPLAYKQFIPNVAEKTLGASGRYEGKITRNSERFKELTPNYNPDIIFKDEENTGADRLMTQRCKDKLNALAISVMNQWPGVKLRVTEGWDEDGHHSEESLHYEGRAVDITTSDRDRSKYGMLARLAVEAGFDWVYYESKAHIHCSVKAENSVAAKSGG

recombinant Ihh = target: B2
Sequence of recombinant Ihh (P97812 28-202): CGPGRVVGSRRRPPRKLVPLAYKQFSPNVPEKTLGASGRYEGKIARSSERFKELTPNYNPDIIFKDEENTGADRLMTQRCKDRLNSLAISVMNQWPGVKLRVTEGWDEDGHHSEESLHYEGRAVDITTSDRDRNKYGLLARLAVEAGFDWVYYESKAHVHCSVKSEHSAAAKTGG

GPC6-AP fusion protein = target: T1, GPC6-AP fusion protein

Binder | Kd (recombinant Shh) [nM] | Kd (recombinant Ihh) [nM] | Kd (GPC6-AP fusion protein) [nM]
B1 | 21 | 16 | –
B2 | – | – | 14

Source: paper PMC5584141 (The Journal of Cell Biology, 2017)
